Source: US20170240651A1 (Sanofi, published 2017)

T1: human anterior gradient protein 2 (AGR2) (human, UniProt O95994 21-175, limits assumed)
T1 construct: also called hAG-2; antigen AGR2
T1 sequence (looked up): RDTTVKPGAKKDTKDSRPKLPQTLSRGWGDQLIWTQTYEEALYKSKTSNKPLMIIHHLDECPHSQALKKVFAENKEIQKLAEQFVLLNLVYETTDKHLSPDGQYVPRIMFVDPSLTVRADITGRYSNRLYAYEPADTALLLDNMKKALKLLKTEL

T2: human anterior gradient protein 2 (AGR2) (human, UniProt O95994 21-175)
T2 chain: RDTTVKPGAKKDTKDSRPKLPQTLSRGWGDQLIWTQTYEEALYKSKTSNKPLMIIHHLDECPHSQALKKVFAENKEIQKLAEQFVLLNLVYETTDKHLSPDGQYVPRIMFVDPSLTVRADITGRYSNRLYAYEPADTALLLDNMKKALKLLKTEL

T3: AGR2 deletion mutant lacking the epitope … (UniProt O95994 21-175)
T3 construct: Made from the pcDNA3-AGR2-His eukaryotic expression plasmid by deletion mutagenesis; also called the mutated AGR2 protein; not shown: His tag of the pcDNA3-AGR2-His plasmid
T3 sequence (looked up): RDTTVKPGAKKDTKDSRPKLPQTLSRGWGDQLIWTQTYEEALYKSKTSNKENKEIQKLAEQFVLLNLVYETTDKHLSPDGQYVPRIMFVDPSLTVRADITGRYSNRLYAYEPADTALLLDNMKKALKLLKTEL


Key:
[1] = molecular target: T1, human anterior gradient protein 2 (AGR2); assay: competitive ELISA, AGR2 coated, antibody pre-incubated with soluble antigen
Protocol: The generated humanized antibody 18A4Hu1 was subjected to an affinity analysis and compared with the murine 18A4 antibody. Specifically, 3 ng/μl antigen AGR2 was used for coating the 96 well ELISA plates at 100 μl per well and blocked with blocking solution. Antibodies at 0.1 ng/μl were mixed 1:1 with antigens of different concentrations and incubated at 37° C. overnight, wherein the antigen concentration was serially diluted from 1000 nM. 100 μl incubated mixture was separately added into different ELISA plates and incubated at 37° C. for 1 hour. After washing the ELISA plates, the HRP-labeled secondary antibodies against human or mouse were added and incubated at 37° C. for 1 hour. Color development solutions A and B were added, each at 80 μl, and color was allowed to develop at 37° C. for 30 min. The reaction was stopped by adding 50 μl stopping solution and absorbance was determined at OD 450. Affinity plate was depicted and the affinities of the antibodies were calculated.

[2] = molecular target: T2, human anterior gradient protein 2 (AGR2); assay: competitive ELISA
[3] = molecular target: T3, AGR2 deletion mutant lacking the …; assay: western blot
Protocol: The amino sequence of the monoclonal antibody corresponding to the epitopes of the antigen AGR2 was determined (see FIG. 23). The procedure was as followed: RNA was extracted from MCF cells. mRNA of AGR2 was obtained by PCR and reverse transcribed to obtain cDNA. The pcDNA3-AGR2-His eukaryotic expression plasmid was constructed and AGR2 was subjected to mutation by deletion. The upstream primer for the mutation was 5′-[…]-3′, and the downstream primer was 5′-[…]-3′. Such a mutation led to the deletion of the epitope […]. […] Then AGR2 was subjected to point mutation. The upstream primer for the mutation was 5′-[…]-3′, and the downstream primer was 5′-[…]-3′, wherein the “C” in the PDI active site “CXXS” was mutate to “S”. […] It was determined that the monoclonal antibody specifically bound to the epitope “[…]”, and may inhibit the PDI activity.

binding result [1] | Kd [2] [nM] | binding result [3] | Binder
binds | 3.02 |  | humanized antibody 18A4Hu1 (antibody, V domains shown) VH: QVQLVQSGAEVKKPGASVKVSCKASGYTFTDYNMDWVRQAPGQGLEWIGDINPNYDTTSYNQKFKGKATLTVDKSTSTAYMELSSLRSEDTAVYYCARSMMGYGSPMDYWGQGTLVTVSS VL: EIVLTQSPATLSLSPGERATLSCRASKSVSTSGYSYMHWYQQKPGQAPRLLIYLASNLESGIPARFSGSGSGTDFTLTISRLEPEDFAVYYCQHIRELPRTFGGGTKLEIK
 | 1.7 | no binding | murine anti-human AGR2 protein monoclonal antibody 18A4 (antibody, V domains shown, also called murine 18A4; the monoclonal antibody) VH: EVQLQQFGAELVKPGASVKISCKASAYTFTDYNMDWVKQSHGKSLEWIGDINPNYDTTSYNQKFKGKATLTVDKSSSTAYMELRSLTSEDTAVYYCARSMMGYGSPMDYWGQGTSVTVSS VL: DIVLTQSPASLTVSLGQRATISCRASKSVSTSGYSYMHWYQRKPGQPPKLLIYLASNLESGVPARFSGSGSGTDFTLNIHPVEGEDAATYYCQHIRELPRTFGGGTKLEIK
